# Values joined by “and” are separate entries in the source; they are usually repeats but may differ in a detail not shown here. Identical values can stand only once.
# Key:
# [1] = target: RbmA R219A mutant (Vibrio cholerae); experiment: SEC-SAXS; analytical Superdex 200 increase 3.2/300 column in line with SAXS, 0.075 ml/min; without MgPO4; conditions: scale: mol monomer per mol dimer
# [2] = target: RbmA W119G mutant (Vibrio cholerae); experiment: as above; conditions: scale: mol monomer per mol dimer
# [3] = target: Rugosity and biofilm structure modulator A (RbmA), wild type (Vibrio cholerae); experiment: SEC-MALS; ENrich SEC 70 column, 20 mM Tris pH 8.0, 200 mM NaCl, 2 mM DTT, 0.02% NaN3, 240-360 ug protein injected; without MgPO4
# [4] = target: Rugosity and biofilm structure modulator A (RbmA), wild type (Vibrio cholerae); experiment: time-resolved SAXS; stopped-flow mixing, 5 mg/ml RbmA in 20 mM Tris/HCl pH 8, 100 mM NaCl with 10 mM potassium phosphate and 2.5 mM MgCl2; followed for 3 hr
# [5] = target: Rugosity and biofilm structure modulator A (RbmA), wild type (Vibrio cholerae); experiment: AUC; sedimentation velocity, 40,000 RPM, RbmA 5 mg/ml, absorbance at 250 nm and Rayleigh interference; without MgPO4
# RbmA E160A mutant = experiment: SEC-MALS; conditions: parent: est. 58; read off a plot
# RbmA R219A mutant = experiment: SEC-MALS; conditions: parent: est. 58; read off a plot
# RbmA W119G mutant = experiment: SEC-MALS; conditions: parent: est. 58; read off a plot
# RbmA W222G mutant = experiment: SEC-MALS; conditions: parent: est. 58; read off a plot
substance,measurement,setting,value
RbmA R219A mutant (natural protein),monomer:dimer molar ratio,[1],3.5
RbmA W119G mutant (natural protein),dimer:monomer molar ratio,[2],2.5
"Rugosity and biofilm structure modulator A (RbmA), wild type (natural protein)",stoichiometry N,[3],2
same,stoichiometry N,[4],6
same,stoichiometry N,[5],4 and 2
"Rugosity and biofilm structure modulator A (RbmA), wild type E160A",other: SEC-MALS average molecular weight,RbmA E160A mutant,57 kg/mol
"Rugosity and biofilm structure modulator A (RbmA), wild type R219A",other: SEC-MALS average molecular weight,RbmA R219A mutant,36 kg/mol
"Rugosity and biofilm structure modulator A (RbmA), wild type W119G",other: SEC-MALS average molecular weight,RbmA W119G mutant,49 kg/mol
"Rugosity and biofilm structure modulator A (RbmA), wild type W222G",other: SEC-MALS average molecular weight,RbmA W222G mutant,58 kg/mol
